{"source": "paper PMC6191146", "about": "“Positive and negative regulation of transferred nif genes mediated by indigenous GlnR in Gram-positive Paenibacillus polymyxa”", "molecules": {"B1": {"name": "EMSA probe mutated site II (ATAACG to ATCGAT) (dsDNA)", "DNA 1": "AGACAAAAACAGAGATTTATGTAAGGGAATAATCGATAGAGAGGAGGGAATGA", "DNA 2": "TCATTCCCTCCTCTCTATCGATTATTCCCTTACATAAATCTCTGTTTTTGTCT"}, "B2": {"name": "SPR oligo site II (BS2F/BS2R on capture linker) (dsDNA)", "DNA 1": "AACAGAGATTTATGTAAGGGAATATAACGTAGAGAGGAG", "DNA 2": "CTCCTCTCTACGTTATATTCCCTTACATAAATCTCTGTTCCTACCCTACGTCCTCCTGC", "DNA 3": "GCAGGAGGACGTAGGGTAGG"}, "B3": {"name": "EMSA probe mutated site I (TGACGT to GGTACC) (dsDNA)", "DNA 1": "ACCGCGCACATGTAAAGTGTACGATATATTACTGGTACCAAAATTTGACACATATGTGA", "DNA 2": "TCACATATGTGTCAAATTTTGGTACCAGTAATATATCGTACACTTTACATGTGCGCGGT"}, "B4": {"name": "SPR oligo site I (BS1F/BS1R on capture linker) (dsDNA)", "DNA 1": "GTAAAGTGTACGATATATTACTTGACGTAAAATTTGACA", "DNA 2": "TGTCAAATTTTACGTCAAGTAATATATCGTACACTTTACCCTACCCTACGTCCTCCTGC", "DNA 3": "GCAGGAGGACGTAGGGTAGG"}}, "key": {"[1]": {"target": "His6-tagged GlnR of Paenibacillus polymyxa WLY78 (Paenibacillus polymyxa WLY78)", "experiment": "SEC; Superdex 200 10/300, 50 mM Tris-HCl pH 7.4, 300 mM NaCl; His6-GlnR at 2 mg/ml; dimer to monomers, broad peak with two maxima"}, "GlnR [2]": {"target": "T1, GlnR (Paenibacillus polymyxa WLY78, UniProt A0A074LG55 1-137)", "T1 sequence": "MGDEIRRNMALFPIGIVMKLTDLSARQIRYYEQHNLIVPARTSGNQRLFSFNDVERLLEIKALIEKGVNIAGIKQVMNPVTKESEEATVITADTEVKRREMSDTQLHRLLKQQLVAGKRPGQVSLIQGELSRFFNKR", "experiment": "EMSA; GlnR alone; EMSA: 20 mM HEPES pH 7.6, 1 mM EDTA, 10 mM (NH4)2SO4, 1 mM DTT, 0.2% Tween 20, 30 mM KCl, 1 ug poly[d(A-T)], 0.3 nM probe, 25 C; SPR: 10 mM HEPES pH 7.4, 300 mM NaCl, 3 mM MgCl2, 0.2 mM EDTA, 0.005% Tween-20, 25 C", "details": "protein: recombinant; tags: N-terminal His6 (pET-28b); chain copies: 2; label: DIG 3' end; blunt"}, "GlnR [3]": {"target": "T1, GlnR", "experiment": "SPR; GlnR alone; EMSA: 20 mM HEPES pH 7.6, 1 mM EDTA, 10 mM (NH4)2SO4, 1 mM DTT, 0.2% Tween 20, 30 mM KCl, 1 ug poly[d(A-T)], 0.3 nM probe, 25 C; SPR: 10 mM HEPES pH 7.4, 300 mM NaCl, 3 mM MgCl2, 0.2 mM EDTA, 0.005% Tween-20, 25 C", "details": "protein: recombinant, tags: N-terminal His6 (pET-28b), chain copies: 2, label: 5' biotin on capture linker S7, 39 bp duplex"}, "GlnR [4]": {"target": "T1, GlnR", "experiment": "SPR; GlnR alone; slow dissociation; EMSA: 20 mM HEPES pH 7.6, 1 mM EDTA, 10 mM (NH4)2SO4, 1 mM DTT, 0.2% Tween 20, 30 mM KCl, 1 ug poly[d(A-T)], 0.3 nM probe, 25 C; SPR: 10 mM HEPES pH 7.4, 300 mM NaCl, 3 mM MgCl2, 0.2 mM EDTA, 0.005% Tween-20, 25 C", "details": "protein: recombinant; tags: N-terminal His6 (pET-28b); chain copies: 2; label: 5' biotin on capture linker S7; 39 bp duplex; 3' overhang 20 nt of BS2R paired to the capture linker"}, "GlnR [5]": {"target": "T1, GlnR", "experiment": "SPR; GlnR alone; fast dissociation; EMSA: 20 mM HEPES pH 7.6, 1 mM EDTA, 10 mM (NH4)2SO4, 1 mM DTT, 0.2% Tween 20, 30 mM KCl, 1 ug poly[d(A-T)], 0.3 nM probe, 25 C; SPR: 10 mM HEPES pH 7.4, 300 mM NaCl, 3 mM MgCl2, 0.2 mM EDTA, 0.005% Tween-20, 25 C", "details": "protein: recombinant; tags: N-terminal His6 (pET-28b); chain copies: 2; label: 5' biotin on capture linker S7; 39 bp duplex; 3' overhang 20 nt of BS1R paired to the capture linker"}}, "data": [{"molecule": "His6-tagged GlnR of Paenibacillus polymyxa WLY78 (natural protein)", "values": [{"measurement": "stoichiometry N", "setting": "[1]", "result": 2}]}, {"molecule": "B1", "values": [{"measurement": "binding result", "setting": "GlnR [2]", "result": "no binding"}]}, {"molecule": "B2", "values": [{"measurement": "Ka", "setting": "GlnR [3]; 3' overhang 20 nt of BS2R paired to the capture linker", "result": "1.86e+07 M-1 (unit not printed in text)"}, {"measurement": "Kd", "setting": "GlnR [4]", "result": "5.37e-08 M (unit not printed in text)"}]}, {"molecule": "B3", "values": [{"measurement": "binding result", "setting": "GlnR [2]", "result": "no binding"}]}, {"molecule": "B4", "values": [{"measurement": "Kd", "setting": "GlnR [5]", "result": "9.16e-07 M (unit not printed in text)"}, {"measurement": "Ka", "setting": "GlnR [3]; 3' overhang 20 nt of BS1R paired to the capture linker", "result": "1.09e+06 M-1 (unit not printed in text)"}]}]}
